Reference: the supplement of paper PMC10266784

B1: library; numbered along this chain (parent)
chain: MAAAAAAAAEQQSSNGPVKKSMREKAVERRSVNKEHNSNFKAGYIPIDEDRLHKTGLRGRKGNLAICVIILLFILAVINLIITLVIWAVIRIGPNGCDSMEFHESGLLRFKQVSDMGVIHPLYKSTVGGRRNENLVITGNNQPIVFQQGTTKLSVENNKTSITSDIGMQFFDPRTQNILFSTDYETHEFHLPSGVKSLNVQKASTERITSNATSDLNIKVDGRAIVRGNEGVFIMGKTIEFHMGGNMELKAENSIILNGSVMVSTTRLPSSSSGDQLGSGDWVRYKLCMCADGTLFKVQVTSQNMGCQISDNPCGNTH

Variants of: B1
Assay: SGCB cell-surface expression functional score (HA stain, bin4 vs bin1, normalised to synonymous) (log10 ratio); higher = more cell-surface SGCB (functional)
Method in brief: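 Using lentivirus at MOI <0.1, HA-tagged, YFP-fused human beta-sarcoglycan codon-saturation libraries were put into HEK293 cells with stable alpha-, gamma- and delta-sarcoglycan expression, in duplicate transductions. YFP-positive cells were collected by sorting 72 hours later, grown 5–7 days, stained on ice with Alexa Fluor 647 anti-HA, fixed, sorted into four 5% intensity bins and amplicon-sequenced. The functional score takes the median, across codons and transductions, of the log ratio of highest-bin to lowest-bin variant frequency. Within each section, synonymous variants were scaled to mean 0, SD 0.5.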

SGCB cell-surface expression functional score (log10) of substitutions, site by site:
N217: H 0; K 0.3; G 0.5; F 1.13; A 0.9; P -1.08; C -0.04; D 0.2; I 0.1; R 0.7; L 0.37; E 0.9; Q 0.77; M 0.27
S214: T -0.12; N -0.1; P -1.11; M -0.57; L -1.06; I -0.69; V -0.18; G -0.32; K -0.46; Y -1.74; A 0.25; Q -0.1; F -1.55; H -0.9; R -0.31; C -0.08; W -1.07
N211: M 0.07; H -0.34; L -0.58; P -0.12; D -0.68; W -3.13; C -1.44; G -3.64; T -0.4; F -0.28; A -0.33; Q -0.03; Y 0; E 0.12; R -0.82; K 0.09; V -0.91; S -0.02; I -0.69
T209: W -0.85; F -0.85; P -0.71; N -0.52; R -0.83; Q -0.66; D -1.17; I -0.34; V 0.51; C -1.07; A -0.04; K -1.12; M 0.74; S 0.1; H -0.13; Y -0.71; L -0.72
I208: T -1.57; Y -2.38; R -1.44; S -1.11; Q -1.96; V 0.49; W -1.04
A212: M 0.16; Q 0.72; F -0.4; T 0.02; R -1.47; N -0.89; Y 0.86; I 0.23; P -0.25; K -1.05; L -0.95; E 0.91; D 0.56; V -0.06; W -0.44; H -0.76; C -0.61; S 0.29; G 0.11
S210: R -1.31; M -1.94; F -0.9; H -0.47; C -0.17; E -1.75; D -0.42; W -1.35; Y -2.28; A 0.29; T -0.61; K -1.43; V -1.36; G -0.16; L -1.26; P -1.92; Q -1.03; N -1.62; I -0.9
D215: M -1; T -0.88; L -1.51; H -0.39; E 0.16; C -1.31; N 0.41; P -0.55; I -0.99; S -0.25; A -0.72; G -0.26; K 0; Y -0.46; Q -1.03; F -1.47; R -0.63; V -0.56
T213: Y -0.24; Q 0.13; K 0.23; A -0.44; S 0.08; P -1.5; I 0.5; N 0.03; G 0.65; C -0.94; M 0.76; R 0.18; L -0.5; H -0.04; F -0.31; D -0.81; V -1.02; E 0.86
L216: E -1.92; R -1.93; A -1.97; T -1.02; W -0.99; S -1.57; I -0.71; F -0.42; P -1.25; H -2.1; Q -0.15; C -2.34; V -2.64; M 0.99; G -1.5; Y -1.59; N -1.72; D -2.69; K -0.59
